According to US20190106460A1, “BINDING INHIBITORS OF THE BETA. TRANSDUCIN REPEAT-CONTAINING PROTEIN” (priority 2011, published 2019):
Starred links: 1 amine or outer side, 2 acyl side, 3 side chain; linkers in the order of their positions; H or OH if unused. Suc = O=C(CCC(=O)[*:2])[*:1]

How the values were obtained:
[1] = target: βTrCP (tag cleaved and complexed with Skp1) (UniProt Q9Y297); assay: FP competition vs fluorescein-IκB peptide
[2] = target: βTrCP (tag cleaved and complexed with Skp1) (UniProt Q9Y297); assay: FP competition vs fluorescein-IκB peptide; remark: listed apart in the source
[3] = target: HisβTrCP/Skp1 and HisβTrCP/GSTSkp1 (immobilised on NTA Biacore chip) (UniProt Q9Y297); assay: SPR, Biacore T200, βTrCP/Skp1 immobilised
[4] = target: βTrCP (tag cleaved and complexed with Skp1) (UniProt Q9Y297); assay: FP competition, 10 nM fluorescein-IκB peptide on βTrCP/Skp1
[5] = target: βTrCP (tag cleaved and complexed with Skp1) (UniProt Q9Y297); assay: FP competition vs fluorescein-IκB peptide; Table 7: peptide selected from the arrays of Tables 5 and 6, re-synthesised; FP assay

Sequence of βTrCP (tag cleaved and complexed with Skp1) (Q9Y297 175-605, chain 1 of 2): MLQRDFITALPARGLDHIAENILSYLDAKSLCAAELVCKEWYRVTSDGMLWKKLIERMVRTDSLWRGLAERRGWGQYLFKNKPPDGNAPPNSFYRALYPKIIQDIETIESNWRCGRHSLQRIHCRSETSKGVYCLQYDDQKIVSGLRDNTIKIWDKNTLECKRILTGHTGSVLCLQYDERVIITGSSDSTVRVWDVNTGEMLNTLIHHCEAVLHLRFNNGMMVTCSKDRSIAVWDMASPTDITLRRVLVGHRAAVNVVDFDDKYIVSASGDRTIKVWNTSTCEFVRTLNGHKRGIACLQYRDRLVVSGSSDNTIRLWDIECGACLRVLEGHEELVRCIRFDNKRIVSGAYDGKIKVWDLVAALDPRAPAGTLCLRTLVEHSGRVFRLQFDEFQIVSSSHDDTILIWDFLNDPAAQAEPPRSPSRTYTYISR
Sequence of βTrCP (tag cleaved and complexed with Skp1) (P63208 whole entry, chain 2 of 2, further chain): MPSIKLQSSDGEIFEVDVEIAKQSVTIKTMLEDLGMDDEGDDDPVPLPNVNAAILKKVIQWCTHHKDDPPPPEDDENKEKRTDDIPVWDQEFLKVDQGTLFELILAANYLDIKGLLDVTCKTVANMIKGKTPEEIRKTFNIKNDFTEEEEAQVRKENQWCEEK
Sequence of HisβTrCP/Skp1 and HisβTrCP/GSTSkp1 (immobilised on NTA Biacore chip) (Q9Y297 175-605, chain 1 of 2): as the sequence (Q9Y297 175-605, chain 1 of 2) above
Sequence of HisβTrCP/Skp1 and HisβTrCP/GSTSkp1 (immobilised on NTA Biacore chip) (P63208 whole entry, chain 2 of 2, further chain): as the sequence (P63208 whole entry, chain 2 of 2, further chain) above

Substance: Fum-EG-F(3F)-F(4NO2)-E-NH2 (peptide)
- IC50 [1]: 60400 nM

Substance: Suc-EGF(2F)Y(Me)E-NH2 (peptide)
- IC50 [2]: 3200 nM
- IC50 [1]: 3280 nM
- Kd [3]: 4400 nM

Substance: Suc-EAYFE-NH2 (peptide)
- IC50 [1]: 82100 nM

Substance: Suc-EG-F(3F)-1Nal-Q-NH2 (peptide)
- IC50 [1]: 7220 nM

Substance: Suc-AG-F(3F)-F(4NO2)-E-NH2 (peptide)
- IC50 [1]: 8010 nM

Substance: DpSGIFE-NH2 (peptide)
- IC50 [1]: 1240 nM
- Kd [3]: 1480 nM

Substance: Suc-EGF(3F)WE-NH2 (peptide)
- IC50 [1]: 95 nM
- Kd [3]: 455 nM

Substance: Suc-EGF(3F)HE-NH2 (peptide)
- IC50 [1]: 521 nM
- Kd [3]: 400 nM

Substance: D-pS-GIFE-NH2 (peptide)
- IC50 [4]: 1240 nM

Substance: Suc-EGF(2F)F(4NO2)E-NH2 (peptide)
- IC50 [2]: 4900 nM
- IC50 [1]: 4910 nM
- Kd [3]: 8000 nM

Substance: Suc-EAFFE-NH2 (peptide)
- IC50 [1]: 59800 nM

Substance: Suc-EGF(4NO2)1NalE-NH2 (peptide)
- IC50 [1]: 1310 nM
- Kd [3]: 1960 nM

Substance: Suc-QGYFE-NH2
- IC50 [1]: 10700 nM

Substance: Suc-EA-F(3F)-F(4NO2)-E-NH2 (peptide)
- IC50 [1]: 27500 nM

Substance: Suc-EG-F(4NO2)-1Nal-NH2 (peptide)
- IC50 [2]: 14000 nM

Substance: Suc-EGF(3F)1NalE-NH2 (peptide)
- IC50 [1]: 157 nM
- Kd [3]: 320 nM

Substance: Suc-QGF(3F)F(4NO2)E-NH2 (peptide)
- IC50 [1]: 2560 nM
- Kd [3]: 5490 nM

Substance: Suc-EG-F(3F)-Y(Me)-E-NH2 (peptide)
- IC50 [1]: 1400 nM

Substance: Suc-EG-3Pal-1Nal-E-NH2 (peptide)
- IC50 [1]: 3630 nM

Substance: (MeO)Suc-EG-F(3F)-1Nal-E-NH2 (peptide)
- IC50 [1]: 1600 nM

Substance: Suc-EGYF(4NO2)E-NH2 (peptide)
- IC50 [1]: 2070 nM
- Kd [3]: 17700 nM

Substance: Suc-EG-F(3F)-3Pal-NH2 (peptide)
- IC50 [2]: 70000 nM

Substance: Suc-AGYFE-NH2
- IC50 [1]: 22200 nM

Substance: Suc-EGF(3F)F(4NO2)E-NH2 (peptide)
- IC50 [2]: 520 nM
- IC50 [1]: 522 nM
- Kd [3]: 4530 nM

Substance: Suc-QGFFE-NH2
- IC50 [1]: 10000 nM

Substance: Suc-EGF(4F)F(4NO2)E-NH2 (peptide)
- IC50 [2]: 1200 nM
- IC50 [1]: 1210 nM
- Kd [3]: 507 nM

Substance: E-pS-GIFE-NH2 (peptide)
- IC50 [4]: 34500 nM

Substance: Mal-EGF(3F)F(4NO2)E-NH2 (peptide)
- IC50 [1]: 2170 nM
- Kd [3]: 1460 nM

Substance: EAFFE-NH2 (peptide)
- IC50 [5]: 28000 nM

Substance: Suc-EGY1NalE-NH2 (peptide)
- IC50 [1]: 1150 nM
- Kd [3]: 1490 nM

Substance: Suc-EGI-1Nal-E-NH2 (peptide)
- IC50 [1]: 15100 nM
